In the data set the target is Pst_A23 (Puccinia striiformis f. sp. tritici, UniProt A0A0L0VHF6 =M+36-181, internal_change). The data set can be described thus: EMSA.

For AACUUCUUCUUUACUUCCUUUCCU (ssRNA) [M2-RNA], the binding result is “binds”.
The result for GAAGAAGAAGAGAAGACCUGAAGA (ssRNA) [M1-RNA] reads “binds”; that for UUUCCCUAAAGUUUCUUACAAUGAUCUGGUUGAAGCAACAAAG (ssRNA) [TaXa21-RNA], “binds”.
With AGGAGGCAAGGACCCACCUAGGCA (ssRNA) [M1-m-RNA] the entry was “no binding”; with ACUUCUUCUUGUUGUUGCUCCUGCUGC (ssRNA) [TaWRKY53-RNA], “binds”.

These data come from paper PMC9129083.
